Data reported in PMC4930479 (Angiogenesis, 2016).

Target: the molecule itself
Assay: SEC-MALS; inhibitor and ligand mixed at molar ratios 5:1 to 1:5 (20 µM and 100 µM), 12 h at ambient temperature; free proteins injected separately; Superose 12 10/300 GL, 10 mM phosphate, 500 mM NaCl, pH 7.0, 0.3 mL/min

B1: PlGF-2 (ligand, UniProt P49763-3 19-170, looked up)
chain: LPAVPPQQWALSAGNGSSEVEVVPFQEVWGRSYCRALERLVDVVSEYPSEVEHMFSPSCVSLLRCTGCCGDENLHCVPVETANVTMQLLKIRSGDRPSYVELTFSQHVRCECRPLREKMKPERRRPKGRGKRRREKQRPTDCHLCGDAVPRR
notes: PlGF-2, isoform of placental growth factor; Dimer (~42 kDa by SEC-MALLS); also called placental growth factor
stoichiometry N: 2
